In publication doi:10.1101/2024.09.07.611787, “Molecular glues that inhibit deubiquitylase activity and inflammatory signalling” (bioRxiv, 2024):

Columns and labels:
[1] = target: His-tagged BRISC labelled with RED-tris-NTA dye (human) (UniProt P46736); test: spectral shift (Dianthus); as a16, labelled His-BRISC first incubated with 100 uM FX-171-C (1% DMSO) for 15 min at RT
[2] = target: His-tagged BRISC labelled with RED-tris-NTA dye (human) (UniProt P46736); test: spectral shift (Dianthus); as a16, labelled His-BRISC first incubated with 100 uM JMS-175-2 (1% DMSO) for 15 min at RT
[3] = target: His-tagged BRISC labelled with RED-tris-NTA dye (human) (UniProt P46736); test: spectral shift (Dianthus); 12.5 nM RED-tris-NTA labelled His-BRISC, SHMT2(A285T) titrated 46 uM to 1.4 nM, no compound (1% DMSO); 25 mM HEPES pH 7.5, 150 mM NaCl, 1 mM DTT, 0.005% Tween-20, 25 °C; one-site total binding

In the case of “SHMT2ΔN(A285T) (residues 18–504) (from UniProt P34897 18-504) (enzyme)”, the KD after incubation with FX-171-C [1] is reported as 3600 nM, the KD after incubation with JMS-175-2 [2] is reported as 700 nM and the Kd [3] is reported as 400 nM.
